Experimental data reported in patent US20020042382A1 (UNITED STATES OF AMERICA AS REPRESENTED BY THE SECRETARY OF …, published 2002).

T1: Sequestrin GST-R(0-IV) fusion protein (Plasmodium falciparum)
T1 construct: The five domains R0-RIV are said to represent the entirety of amino acids H42-A458; also called domain combination R(0-IV); not shown: glutathione S-transferase fusion partner encoded by vector pGEX-3X (Pharmacia), followed by a Factor Xa site
T1 chain: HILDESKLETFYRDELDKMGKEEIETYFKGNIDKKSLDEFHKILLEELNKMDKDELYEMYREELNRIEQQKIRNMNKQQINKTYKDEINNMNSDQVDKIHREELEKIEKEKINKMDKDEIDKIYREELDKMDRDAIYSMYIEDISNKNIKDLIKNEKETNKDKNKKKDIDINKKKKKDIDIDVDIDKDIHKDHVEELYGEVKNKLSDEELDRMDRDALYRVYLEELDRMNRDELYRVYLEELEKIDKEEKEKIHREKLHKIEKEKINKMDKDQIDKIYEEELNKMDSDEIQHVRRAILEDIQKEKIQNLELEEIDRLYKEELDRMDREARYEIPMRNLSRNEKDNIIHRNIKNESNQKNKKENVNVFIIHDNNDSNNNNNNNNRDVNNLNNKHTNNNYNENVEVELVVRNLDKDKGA

B1: trpE fusion protein representing Sequestrin amino acids H42-A458 (other)
chain: T1 chain
notes: Tested in a bacterial extract, blotted
B2: CD36 (purified) (receptor)
chain: GCDRNCGLIAGAVIGAVLAVFGGILMPVGDLLIQKTIKKQVVLEEGTIAFKNWVKTGTEVYRQFWIFDVQNPQEVMMNSSNIQVKQRGPYTYRVRFLAKENVTQDAEDNTVSFLQPNGAIFEPSLSVGTEADNFTVLNLAVAAASHIYQNQFVQMILNSLINKSKSSMFQVRTLRELLWGYRDPFLSLVPYPVTTTVGLFYPYNNTADGVYKVFNGKDNISKVAIIDTYKGKRNLSYWESHCDMINGTDAASFPPFVEKSQVLQFFSSDICRSIYAVFESDVNLKGIPVYRFVLPSKAFASPVENPDNYCFCTEKIISKNCTSYGVLDISKCKEGRPVYISLPHFLYASPDVSEPIDGLNPNEEEHRTYLDIEPITGFTLQFAKRLQVNLLVKPSEKIQVLKNLKRNYIVPILWLNETGTIGDEKANMFRSQVTGKINLLGLIEMILLSVGVVMFVAFMISYCACRSKTIK
modifications: 125I-labelled where used as probe
notes: Purified protein, a gift from Dr. N. Tandon; Used 125I-labelled in solution or coated on plates or dishes; also called 125I-CD36; radiolabelled human CD36

Legend:
[1] = target: radiolabeled ICAM-1 (UniProt P05362 28-532, radiolabelled); test: bacterial extracts blotted and probed with radiolabeled ICAM-1
Chain of radiolabeled ICAM-1 (P05362 28-532 limits assumed): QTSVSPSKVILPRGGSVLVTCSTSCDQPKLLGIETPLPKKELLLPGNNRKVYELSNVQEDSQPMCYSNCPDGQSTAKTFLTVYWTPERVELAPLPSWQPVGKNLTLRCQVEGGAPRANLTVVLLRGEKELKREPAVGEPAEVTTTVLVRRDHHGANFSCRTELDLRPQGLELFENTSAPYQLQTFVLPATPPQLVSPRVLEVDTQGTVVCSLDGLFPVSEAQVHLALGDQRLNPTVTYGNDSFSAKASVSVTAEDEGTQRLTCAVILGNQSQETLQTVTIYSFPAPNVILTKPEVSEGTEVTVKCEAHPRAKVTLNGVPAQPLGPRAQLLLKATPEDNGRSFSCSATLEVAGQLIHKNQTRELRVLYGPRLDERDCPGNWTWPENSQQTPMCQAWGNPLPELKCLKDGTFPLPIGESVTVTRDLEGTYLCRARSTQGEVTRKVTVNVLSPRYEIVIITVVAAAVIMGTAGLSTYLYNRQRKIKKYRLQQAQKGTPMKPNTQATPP

[2] = target: T1, Sequestrin GST-R(0-IV) fusion protein; test: competition of 125I-CD36 binding to plate-coated GST-R(0-IV) by unlabeled CD36, gamma counting

Binder | binding result [1] | Ki [2]
B1 | no binding | 
B2 |  | ~6 nM
